Reference: PMC12325699, “Utilizing native nanodiscs to isolate active TRPC3 channels and expand structural analysis capabilities” (Scientific Reports, 2025)

Target: the molecule itself
Test: negative-stain electron microscopy; purified TRPC3 at 0.1 mg/mL, extracted from Expi293F membranes with DDM or with DDDG, on a TEM grid, stained with 1% uranyl acetate

B1: canonical transient receptor potential channel 3 (TRPC3), TRPC3-YFP-3xFLAG construct (natural protein, human, UniProt Q13507-3 1-848, looked up)
chain: MEGSPSLRRMTVMREKGRRQAVRGPAFMFNDRGTSLTAEEERFLDAAEYGNIPVVRKMLEESKTLNVNCVDYMGQNALQLAVGNEHLEVTELLLKKENLARIGDALLLAISKGYVRIVEAILNHPGFAASKRLTLSPCEQELQDDDFYAYDEDGTRFSPDITPIILAAHCQKYEVVHMLLMKGARIERPHDYFCKCGDCMEKQRHDSFSHSRSRINAYKGLASPAYLSLSSEDPVLTALELSNELAKLANIEKEFKNDYRKLSMQCKDFVVGVLDLCRDSEEVEAILNGDLESAEPLEVHRHKASLSRVKLAIKYEVKKFVAHPNCQQQLLTIWYENLSGLREQTIAIKCLVVLVVALGLPFLAIGYWIAPCSRLGKILRSPFMKFVAHAASFIIFLGLLVFNASDRFEGITTLPNITVTDYPKQIFRVKTTQFTWTEMLIMVWVLGMMWSECKELWLEGPREYILQLWNVLDFGMLSIFIAAFTARFLAFLQATKAQQYVDSYVQESDLSEVTLPPEIQYFTYARDKWLPSDPQIISEGLYAIAVVLSFSRIAYILPANESFGPLQISLGRTVKDIFKFMVLFIMVFFAFMIGMFILYSYYLGAKVNAAFTTVEESFKTLFWSIFGLSEVTSVVLKYDHKFIENIGYVLYGIYNVTMVVVLLNMLIAMINSSYQEIEDDSDVEWKFARSKLWLSYFDDGKTLPPPFSLVPSPKSFVYFIMRIVNFPKCRRRRLQKDIEMGMGNSKSRLNLFTQSNSRVFESHSFNSILNQPTRYQQIMKRLIKRYVLKAQVDKENDEVNEGELKEIKQDISSLRYELLEDKSQATEELAILIHKLSEKLNPSMLRCE
notes: a TEV site stands between the tags and TRPC3 by the plasmid's name; The protein was purified by its FLAG tag; no TEV cleavage step is described, so the tags were probably still on the protein in the electron microscopy; also called TRPC3–3 x FLAG–YFP; 3xFLAG-YFP; source: Expi293F, transiently transfected; membranes extracted with DDM or DDDG
With B1 the “stoichiometry N” value was 4.
